# ± gives the standard error.
# B1: library; numbered along this chain (parent)
# chain: MATDAALRRLLRLHRTEIAVAVDSAFPLLHALADHDVVPEDKFQETLHLKEKEGCPQAFHALLSWLLTQDSTAILDFWRVLFKDYNLERYGRLQPILDSFPKDVDLSQPRKGRKPPAVPKALVPPPRLPTKRKASEEARAAAPAALTPRGTASPGSQLKAKPPKKPESSAEQQRLPLGNGIQTMSASVQRAVAMSSGDVPGARGAVEGILIQQVFESGGSKKCIQVGGEFYTPSKFEDSGSGKNKARSSSGPKPLVRAKGAQGAAPGGGEARLGQQGSVPAPLALPSDPQLHQKNEDECAVCRDGGELICCDGCPRAFHLACLSPPLREIPSGTWRCSSCLQATVQEVQPRAEEPRPQEPPVETPLPPGLRSAGEEVRGPPGEPLAGMDTTLVYKHLPAPPSAAPLPGLDSSALHPLLCVGPEGQQNLAPGARCGVCGDGTDVLRCTHCAAAFHWRCHFPAGTSRPGTGLRCRSCSGDVTPAPVEGVLAPSPARLAPGPAKDDTASHEPALHRDDLESLLSEHTFDGILQWAIQSMARPAAPFPS
# Variants of: B1
# Assay: AIRE transcriptional activation functional score (insulin promoter-GFP; nonsense median 0, synonymous median 1) (normalised score); higher = higher AIRE activity (more reporter activation)
# Conditions: with insulin promoter-GFP reporter in HEK293
# Method: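 Deep mutational scan of full-length human AIRE (codon-optimized cDNA, DT-POPCode NNN libraries over three regions) integrated at a Bxb1 landing pad in HEK293 cells carrying an insulin core promoter-GFP reporter at a Flp-In site. Cells were sorted for the top 10% GFP about 14 days after transfection. Variant frequency log-ratios (select vs non-select, TileSeq) were rescaled so that the nonsense median is 0 and the synonymous median is 1, then averaged over biological replicates.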
row,Variant,AIRE transcriptional activation functional score
1,V420R,1.03 ± 0.23
2,G208D,0.296 ± 0.12
3,V279M,1.34 ± 0.095
4,P101W,-5.52 ± 1.2
5,R12E,-0.463 ± 0.9
6,I18P,-0.146 ± 0.3
7,I18H,0.614 ± 0.35
8,I18M,0.409 ± 0.13
9,A73I,1.33 ± 0.14
10,A73V,1.1 ± 0.32
11,A403H,1.02 ± 0.23
12,A317L,1.01 ± 0.42
13,A317K,0.241 ± 0.092
14,A317M,0.781 ± 0.048
15,A317F,0.813 ± 0.12
16,R336K,1.67 ± 0.098
17,R336Y,0.141 ± 0.34
18,L414G,0.546 ± 0.18
19,G424S,1.19 ± 0.21
20,G269S,1.2 ± 0.23
21,H396S,0.606 ± 0.35

row,Variant,AIRE transcriptional activation functional score
1,H396A,0.663 ± 0.22
2,T524P,0.528 ± 0.27
3,L341W,1.32 ± 0.023
4,S250A,0.792 ± 0.13
5,E347G,1.17 ± 0.13
6,K395V,1.34 ± 0.17
7,Q530W,-0.0706 ± 0.066
8,Q530L,-0.018 ± 0.14
9,C337E,1.73 ± 0.059
10,E517A,-0.0659 ± 0.29
11,P509A,0.736 ± 0.23
12,W455S,0.675 ± 0.2
13,V206P,0.762 ± 0.22
14,K161C,1.56 ± 0.32
15,K161T,0.898 ± 0.54
16,P407A,0.943 ± 0.23
17,P407R,0.823 ± 0.31
18,G438W,1.26 ± 0.047
19,R8H,-0.286 ± 0.2
20,R8V,-0.0144 ± 0.31
21,G204H,1.43 ± 0.35

row,Variant,AIRE transcriptional activation functional score
1,P200I,0.675 ± 0.44
2,S107M,1.27 ± 0.4
3,L397K,0.921 ± 0.032
4,L397V,0.641 ± 0.29
5,L397Q,1.36 ± 0.082
6,A186I,-0.146 ± 0.33
7,G431H,1.39 ± 0.086
8,V37G,0.192 ± 0.36
9,T183W,0.659 ± 0.14
10,P355T,1.09 ± 0.27
11,P355I,1.01 ± 0.11
12,L49V,0.492 ± 0.31
13,A541W,0.259 ± 0.02
14,A541F,0.75 ± 0.26
15,Q189Y,0.0452 ± 0.053
16,I533S,0.404 ± 0.12
17,C55T,1.49 ± 0.65
18,C55P,0.602 ± 0.51
19,Q157D,0.498 ± 0.44
20,Q157P,1.1 ± 0.25
21,H35T,-0.0166 ± 0.64

row,Variant,AIRE transcriptional activation functional score
1,D70H,-0.0845 ± 0.37
2,D70I,0.395 ± 0.96
3,A452M,0.473 ± 0.13
4,A452C,1.13 ± 0.14
5,P95K,0.336 ± 0.083
6,I181H,-0.417 ± 0.21
7,L409R,0.789 ± 0.21
8,A271Y,0.83 ± 0.071
9,A271H,1.66 ± 0.047
10,F215E,0.601 ± 0.31
11,L488P,1.04 ± 0.17
12,L488K,1.07 ± 0.24
13,P539W,0.719 ± 0.068
14,P539V,0.434 ± 0.12
15,P143G,0.958 ± 0.37
16,W335K,1.12 ± 0.3
17,P492F,1.04 ± 0.26
18,P163S,1.3 ± 0.47
19,Y394A,0.692 ± 0.2
20,G305W,0.779 ± 0.044
21,P384G,1.62 ± 0.15

# — the supplement of paper PMC12667976
